From article PMC12021450

What was measured:
[1] = target: Trypanosoma brucei MSC-associated protein 1 (MCP1), wild type, His6-tagged (Trypanosoma brucei); assay: mass photometry; protein alone, 50 nM final in 50 mM HEPES-KOH pH 7.6, 50 mM NaCl, 2 mM MgCl2, 0.5 mM TCEP; pre-incubated at 2 uM at room temperature for 10 min; no tRNA; monomer to dimer
[2] = target: Trypanosoma brucei MSC-associated protein 1 (MCP1), wild type, His6-tagged (Trypanosoma brucei); assay: mass photometry; 50 nM protein with 25 nM tRNA^Ala (complex formed at 2 uM protein : 1 uM tRNA^Ala, room temperature, 10 min) in 50 mM HEPES-KOH pH 7.6, 50 mM NaCl, 2 mM MgCl2, 0.5 mM TCEP; monomer to dimer

- percent of the protein population that is dimeric [1]: 17%
- stoichiometry N [1]: 2
- percent of the species in the dimer peak, with tRNA^Ala [2]: 31%
- stoichiometry N [2]: 2
Substance: Trypanosoma brucei MSC-associated protein 1 (MCP1), wild type, His6-tagged (natural protein)
